Where a chain is given by its changes, count along the chain named. Where “and” joins values, the source holds several entries; their conditions need not be identical. Identical values can stand only once. Each block holds one binder with its values, some of them ahead of it.
Key:
cynomolgus ILT7 [1] = target: T1, cynomolgus ILT7 (cynomolgus, UniProt P59901 24-499 (human entry)); test: flow cytometry on CynoILT7 CT-125 cells (cynomolgus ILT7), bottom panel, table 'Ec50 (pM)'
T1 construct: also called cyno ILT7; cynomolgus monkey ILT7
Method: (§1) Binding of anti-ILT7 variants and isotype controls on human and cynomolgus ILT7 was assessed by flow cytometry analysis using CT-550 and cynoILT7 CT-125 cells respectively. CT-125 cells were used as control. Cells were resuspended in Blocking Buffer (PBS supplemented with 10% FBS) at a concentration of 5 million cells per mL and transferred into a round-bottom 96-well plates (BD Falcon™ Clear Microtest Plate, BD Biosciences) at 100 μL per well. Anti-ILT7 variants and control antibodies were added onto the cells for 30 min at 4° C. on a plate shaker. Cells were washed three times with PBS and resuspended in Blocking Buffer (100 μL/well). Human IgG binding on cell surface was detected using a secondary anti-human IgG antibody conjugated to DyLight 649 (1 in 1000 dilution). Cells were incubated in the dark for 30 min at 4° C. on a plate shaker. Cells were washed three times with PBS and surface fluorescence was acquired using LSRII Flow Cytometry System and FACSDiva Software (both from BD Biosciences).

[2] = target: T2, HA-tagged human ILT7 on CT-550 cells (human, UniProt P59901 24-499); test: flow cytometry on CT-550 cells (human ILT7), top panel, table 'Ec50 (pM)'
T2 construct: whole, on cells; CT-550 cells: CT-125 cells (2B4 murine T-cell hybridoma with mouse FcεRIγ and NFAT-GFP reporter) transduced with HA-tagged human ILT7; also called human ILT7-expressing cells; not shown: HA tag
Method: as §1

[3] = target: T2, HA-tagged human ILT7 on CT-550 cells; test: cell-based or functional assay
[4] = target: T2, HA-tagged human ILT7 on CT-550 cells; test: flow cytometry (MFI) on human ILT7-expressing cells, left panel 'Human ILT7', table 'Ec50 (pM) Mean ± SD n=3'
cynomolgus ILT7 [5] = target: T1, cynomolgus ILT7; test: flow cytometry (MFI) on cynomolgus ILT7-expressing cells, right panel 'Cynomolgus ILT7', table 'Ec50 (pM) Mean ± SD n=3'
cynomolgus ILT7 [6] = target: T1, cynomolgus ILT7; test: cell-based or functional assay
cynomolgus ILT7 [7] = target: T1, cynomolgus ILT7; test: flow cytometry on CynoILT7 CT-125 cells
Method: as §1
In order to determine the binding EC₅₀ of the variants on cells expressing cynomolgus ILT7, the antibodies were screened for binding on CynoILT7 CT-125 cells by flow cytometry. […] The graph in FIG. 3 represents the mean results from two independent experiments, and the table in FIG. 3 show the average EC₅₀.

[8] = target: T2, HA-tagged human ILT7 on CT-550 cells; test: flow cytometry on CT-550 cells expressing human ILT7, anti-human IgG DyLight 649 detection; table 'Mean Ec50 (nM)', n = 2
Method: as §1
In order to determine the binding EC50 of ILT70019, ILT70028, ILT70052, ILT70076, ILT70080, ILT70083, ILT70089, ILT70100, ILT70137, ILT70142 and ILT70144 on cells expressing human ILT7, the candidates were screened for binding on CT-550 cells by flow cytometry. ILT70080 (EC₅₀=0.28 nM), ILT70083 (EC₅₀=0.37 nM), ILT70137 (EC₅₀=0.41 nM), ILT70144, ILT70142, ILT70052, and ILT70100 bound to human ILT7-expressing cells. […] The anti-ILT7 antibodies 7C7 (7C7 is described above in Example 1) and SBI33 (SBI33 refers to the anti-ILT7 antibody ILT7#33 provided in U.S. Published Application No. 2009/0280128) were used as positive controls.

[9] = target: T2, HA-tagged human ILT7 on CT-550 cells; test: flow cytometry on human ILT7-expressing cells, top panel, table 'Ec50 (pM)'
cynomolgus ILT7 [10] = target: T1, cynomolgus ILT7; test: flow cytometry on cynomolgus ILT7-expressing cells, bottom panel, table 'Ec50 (pM)'
Method: as §1

[11] = target: T2, HA-tagged human ILT7 on CT-550 cells; test: flow cytometry on human ILT7-expressing cells, left panel 'Human ILT7', table 'Ec50 (nM)'
Method: as §1

T1 sequence (P59901 other isoform, or with tags, fused parts or gaps limits assumed): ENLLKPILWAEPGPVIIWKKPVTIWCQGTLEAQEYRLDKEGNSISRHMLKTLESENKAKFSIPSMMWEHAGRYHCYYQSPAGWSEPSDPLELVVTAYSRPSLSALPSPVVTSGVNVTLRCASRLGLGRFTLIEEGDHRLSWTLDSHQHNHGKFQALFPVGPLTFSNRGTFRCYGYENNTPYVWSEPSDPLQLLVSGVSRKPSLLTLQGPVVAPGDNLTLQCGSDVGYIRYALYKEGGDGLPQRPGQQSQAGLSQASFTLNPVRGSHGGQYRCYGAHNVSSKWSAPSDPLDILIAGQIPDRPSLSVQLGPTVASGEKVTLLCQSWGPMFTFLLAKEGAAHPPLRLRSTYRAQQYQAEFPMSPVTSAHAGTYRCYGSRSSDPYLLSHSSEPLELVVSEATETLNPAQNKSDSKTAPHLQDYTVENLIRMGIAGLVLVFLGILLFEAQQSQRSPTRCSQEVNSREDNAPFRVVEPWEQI
T2 sequence (P59901 24-499): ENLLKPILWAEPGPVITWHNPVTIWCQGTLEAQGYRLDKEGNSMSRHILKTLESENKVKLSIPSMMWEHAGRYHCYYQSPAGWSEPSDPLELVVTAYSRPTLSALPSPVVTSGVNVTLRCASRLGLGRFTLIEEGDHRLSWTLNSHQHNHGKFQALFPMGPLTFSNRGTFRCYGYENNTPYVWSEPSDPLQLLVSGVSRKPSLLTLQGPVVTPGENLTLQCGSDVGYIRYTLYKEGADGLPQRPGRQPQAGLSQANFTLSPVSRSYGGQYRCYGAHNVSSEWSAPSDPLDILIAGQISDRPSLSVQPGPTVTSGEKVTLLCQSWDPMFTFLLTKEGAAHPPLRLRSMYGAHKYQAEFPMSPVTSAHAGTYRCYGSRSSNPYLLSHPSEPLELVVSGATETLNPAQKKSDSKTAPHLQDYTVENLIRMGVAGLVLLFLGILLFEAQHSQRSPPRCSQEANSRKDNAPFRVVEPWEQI

B1: ILT70080.1 (antibody, V domains shown)
VH: QVQLVQSGAEVKKPGSSVKVSCKASGDSFRNYAVSWVRQAPGQGLEWMGAMMPSFGTREHSQQFQGRVTLTADESTSTAYMELSSLRSEDTAVYYCAGSRDYNAYHFWTGPPDFWGRGTLVTVSS
VL: SYVLTQPPSVSVAPGKTARITCGGDSVGSTSVHWYQQKPGQAPVMVMFYNSDRPSGIPERFSGSISGNTATLTISRVEAGDEADYYCQVWDTSSDHPEFGGGTKLTVL
notes: Engineered (germlined) variant of ILT70080, tested as IgG1
- EC50 (cynomolgus ILT7 [1]): 463 pM
- EC50 [2]: 201 pM
- ADCC EC50 [3]: < 14.1 pM and 8 pM and 10 pM

B2: ILT70080.6 (antibody, V domains shown)
VH: B1 VH
VL: B1 VL with M45L, M47I, F48Y, I65N
notes: as for B1
- EC50 (cynomolgus ILT7 [1]): 428 pM
- EC50 [2]: 287 pM
- ADCC EC50 [3]: < 14.1 pM and 6.9 pM
- EC50 [4]: 155 pM
- EC50 (cynomolgus ILT7 [5]): 370 pM

B3: ILT70080.5 (antibody, V domains shown)
VH: B1 VH
VL: B1 VL with I65N
notes: as for B1
- EC50 (cynomolgus ILT7 [1]): 612 pM
- EC50 [2]: 503 pM
- ADCC EC50 [3]: < 14.1 pM and 8.6 pM

B4: ILT70080.7 (antibody, V domains shown)
VH: B1 VH
VL: B1 VL with M45L, I65N
notes: as for B1
- EC50 (cynomolgus ILT7 [1]): 405 pM
- EC50 [2]: 229 pM
- ADCC EC50 [3]: < 14.1 pM and 7.8 pM

B5: ILT70080.4 (antibody, V domains shown)
VH: B1 VH with K13A, S16T, T71S
VL: B1 VL with V3E, R19K, T21S
notes: as for B1
- EC50 (cynomolgus ILT7 [1]): 597 pM
- EC50 [2]: 337 pM
- ADCC EC50 [3]: < 14.1 pM and 11.9 pM

B6: ILT70080.2 (antibody, V domains shown)
VH: B1 VH with T71S
VL: B1 VL
notes: as for B1
- EC50 (cynomolgus ILT7 [1]): 503 pM
- EC50 [2]: 225 pM
- ADCC EC50 [3]: < 14.1 pM

B7: ILT70080.3 (antibody, V domains shown)
VH: B1 VH with K13A, S16T, T71S
VL: B1 VL
notes: as for B1
- EC50 (cynomolgus ILT7 [1]): 467 pM
- EC50 [2]: 198 pM
- ADCC EC50 [3]: < 14.1 pM and 11 pM

B8: ILT70052 (antibody, V domains shown)
VH: EVQLVESGGGLVKPGGSLRLSCEASGFTFTDYYMNWIRQAPGKGLEWISYISPGGTTVYYADSVKGRFTISRDNAKNSLYLQMNSLRVEDTAVYYCARDISGYGDWFDPWGKGTLVTVSS
VL: QSVVTQPPSASGTPGQRVTISCSGSSSNIGSNTVNWYQLLPATAPRILIYNNNQRPSGVPDRFAGSKSGTSASLAISGLQSEDEADYYCGAWDDSLNSPVFGGGTKLTVL
- ADCC EC50 (cynomolgus ILT7 [6]): 73 pM
- EC50 (cynomolgus ILT7 [7]): 350 pM
- EC50 [8]: 23100 pM

B11: ILT70083.3 (antibody, V domains shown)
VH: EVQLLESGGGLVQPGGSLRLSCAASGFTFSSYAMSWVRQAPGKGLEWVSAISGSGGSTYYADSVKGWFTISRDNSKNTLYLQMNSLRAEDTAVYYCARRTYYYDSDGHSDVFDIWGRGTLVTVSS
VL: QSVVTQPPSVSAAPGQKVTISCSGSASNIGSNFVSWYQQLPGTAPKLLIYDNDKRDLGIPDRFSGSKSGTSATLGITGLQTGDEADYYCGTWDTSLTVGVFGGGTKLTVL
notes: Engineered (germlined) IgG1 variant of ILT70083
- EC50 [9]: 596 pM
- ADCC EC50 [3]: > 89 pM
- EC50 (cynomolgus ILT7 [10]): 777 pM

B12: ILT70083.1 (antibody, V domains shown)
VH: B11 VH
VL: B11 VL with G65A, K67I, G69S
- ADCC EC50 [3]: > 89 pM

B14: ILT70083.2 (antibody, V domains shown)
VH: B11 VH
VL: B11 VL with V4L, G65A, K67I, G69S
notes: as for B11
- EC50 [9]: 863 pM
- ADCC EC50 [3]: > 89 pM
- EC50 (cynomolgus ILT7 [10]): 15000 pM

B17: ILT70083.5 (antibody, V domains shown)
VH: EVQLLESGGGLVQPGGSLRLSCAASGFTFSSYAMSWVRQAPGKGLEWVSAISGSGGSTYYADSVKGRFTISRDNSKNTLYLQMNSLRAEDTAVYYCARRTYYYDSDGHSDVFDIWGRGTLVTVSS
VL: B11 VL with T43R, G65A, K67I, G69S, T73A, G75A, G82E
notes: as for B11
- EC50 [9]: 500 pM
- ADCC EC50 [3]: > 89 pM
- EC50 (cynomolgus ILT7 [10]): 2280 pM

B20: ILT70083.4 (antibody, V domains shown)
VH: B11 VH
VL: B11 VL with V4L
notes: as for B11
- EC50 [9]: 353 pM
- ADCC EC50 [3]: > 89 pM
- EC50 (cynomolgus ILT7 [10]): 620 pM

Second part, the binder after the results:

- ADCC EC50 (cynomolgus ILT7 [6]): 58 pM
- EC50 [8]: 2030 pM
B9: ILT70142 (antibody, V domains shown)
VH: QVQLVQSGAEVKKPGASVKVSCKASGYTFTSYGISWVRQAPGQGLEWMGWISAYNGNTNYAQKLQGRVTMTRDTSISTAYMELSRLRSDDTAVYYCARNGLWGWDSDAFDIWGQGTTVTVSS
VL: QSVLTQPPSVSAAPGQKVTISCSGSSSNIGNNYVSWYQQLPGTAPKLLIYDNNKRPSGIPDRFSGSKSGTSATLGITGLQTGDEADYYCGTWDSSLSAGVFGTGTQLTVL

- EC50 (cynomolgus ILT7 [7]): 7810 pM
- EC50 [8]: 1700 pM
B10: ILT70144 (antibody, V domains shown)
VH: B9 VH
VL: B9 VL

- EC50 [9]: 437 pM
- ADCC EC50 [3]: > 89 pM
- EC50 (cynomolgus ILT7 [10]): 711 pM
B13: ILT70083.8 (antibody, V domains shown)
VH: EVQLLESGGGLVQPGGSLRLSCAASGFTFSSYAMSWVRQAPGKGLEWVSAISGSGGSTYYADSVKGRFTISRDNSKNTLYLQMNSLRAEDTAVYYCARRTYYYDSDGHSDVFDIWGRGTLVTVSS
VL: B11 VL
notes: as for B11

- EC50 [9]: 540 pM
- ADCC EC50 [3]: > 89 pM
- EC50 (cynomolgus ILT7 [10]): 957 pM
B15: ILT70083.9 (antibody, V domains shown)
VH: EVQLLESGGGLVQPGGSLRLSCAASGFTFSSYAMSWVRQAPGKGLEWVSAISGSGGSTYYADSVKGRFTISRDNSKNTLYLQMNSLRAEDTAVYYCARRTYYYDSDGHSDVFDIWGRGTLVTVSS
VL: B11 VL with V4L
notes: as for B11

- EC50 [9]: 516 pM
- ADCC EC50 [3]: > 89 pM
- EC50 (cynomolgus ILT7 [10]): 1600 pM
B16: ILT70083.6 (antibody, V domains shown)
VH: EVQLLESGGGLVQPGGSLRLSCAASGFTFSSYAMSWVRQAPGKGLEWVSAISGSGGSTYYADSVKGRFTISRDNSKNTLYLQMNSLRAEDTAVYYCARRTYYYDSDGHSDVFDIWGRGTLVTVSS
VL: B11 VL with G65A, K67I, G69S
notes: as for B11

- EC50 [9]: 905 pM
- ADCC EC50 [3]: > 89 pM
- EC50 (cynomolgus ILT7 [10]): 9470 pM
B18: ILT70083.7 (antibody, V domains shown)
VH: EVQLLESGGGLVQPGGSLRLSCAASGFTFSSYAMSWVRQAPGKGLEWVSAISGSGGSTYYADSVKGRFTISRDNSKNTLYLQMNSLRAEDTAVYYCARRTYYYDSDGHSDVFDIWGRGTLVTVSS
VL: B11 VL with V4L, G65A, K67I, G69S
notes: as for B11

- ADCC EC50 (cynomolgus ILT7 [6]): 57 pM
- ADCC EC50 [3]: 10.5 pM
- EC50 [11]: 380 pM
- EC50 [4]: 211 pM
- EC50 (cynomolgus ILT7 [5]): 863 pM
B19: afucosylated ILT70083 (antibody, V domains shown)
VH: B11 VH
VL: B11 VL with T43R, G65A, K67I, G69S, T73A, G75A, G82E
modifications: afucosylated: lacks the α-1,6 fucose moiety on the N-glycan at Asn-297 of the heavy chain

- ADCC EC50 (cynomolgus ILT7 [6]): 188 pM
- EC50 (cynomolgus ILT7 [7]): 1630 pM
- EC50 [8]: 180000 pM
B21: ILT70100 (antibody, V domains shown)
VH: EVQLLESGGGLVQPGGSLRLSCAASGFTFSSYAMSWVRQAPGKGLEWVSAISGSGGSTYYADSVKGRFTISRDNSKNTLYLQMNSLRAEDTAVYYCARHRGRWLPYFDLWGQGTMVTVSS
VL: DIQLTQSPSSLSASVGERVTITCQASQDIRSYLNWYQQKPGKAPKLLIYDVSNLETGVPSRFSGSGSGTEYTFSISSLQPEDFATYYCQQYDKAPLTFGGGTKVEIK

Reference: US20220144940A1 (VIELA BIO, published 2022)
